Measurements published in patent publication US20190055527A1 (KYUSHU UNIVERSITY NATIONAL UNIVERSITY, published 2019).

How the values were obtained:
Test in all cases: SPR (BIAcore J), PfuPCNA immobilised on CM5 chip, polymerase variant as analyte, 25° C.
Taq81 (PIP-L5-Taq) = target: T1, Taq81 (PIP-L5-Taq) (Thermus aquaticus, UniProt P19821 1-832)
T1 construct: expressed in E. coli and purified; also called DNA polymerase variant Taq81
Protocol: (§1) In the surface plasmon resonance (SPR) analysis, BIAcore J (manufactured by BIACORE) was used. A PCNA from Pyrococcus furiosus (J. Bacteriology, 181, 6591-6599, 1999: hereinafter referred to as PfuPCNA) was immobilized on a CM5 sensor chip (manufactured by GE Healthcare) by amine coupling, and the measurement was carried out under the conditions of 25° C., a flow rate of 30 μL/minutes, and a solution E (10 mM Tris-HCl, 50 mM KCl, 1.5 mM MgCl₂, pH 8.3). A sample solution of Taq81 to Taq85 diluted to 10, 20, 40, 80, 160, or 320 nM or a sample solution of Taq94 diluted to 125 nM, 250 nM, 500 nM, 1 μM, or 2 μM was each added for 2 minutes. The sensorgrams obtained were analyzed by BIA evaluation program, and the dissociation constants (Kd) between Taq81 to Taq85 and PfuPCNA and between Taq94 and PfuPCNA were calculated.
(§2) The dissociation constants (Kd) with respect to the bindings between five kinds of Taq DNA polymerases to which PIP box was added at an N-terminal, each having a different length of a linker peptide (Taq81, Taq82, Taq83, Taq84, and Taq85), and PfuPCNA were calculated. As a result, the values were 7.1×10⁻⁷ M, 4.4×10⁻⁷ M, 2.4×10⁻⁷ M, 2.5×10⁻⁷ M, and 2.0×10⁻⁷ M, which were nearly of the same level regardless of the lengths of the linker peptides.

Taq82 (PIP-L10-Taq) = target: T2, Taq82 (PIP-L10-Taq) (Thermus aquaticus, UniProt P19821 1-832)
T2 construct: N-terminal PfuRFCL PIP box, 10-residue Ser/Gly linker, Taq DNA polymerase; also called DNA polymerase variant Taq82
Protocol: as §1, §2

Taq83 (PIP-L15-Taq) = target: T3, Taq83 (PIP-L15-Taq) (Thermus aquaticus, UniProt P19821 1-832)
T3 construct: N-terminal PfuRFCL PIP box, 15-residue Ser/Gly linker, Taq DNA polymerase; also called DNA polymerase variant Taq83
Protocol: as §1, §2

Taq84 (PIP-L35-Taq) = target: T4, Taq84 (PIP-L35-Taq) (Thermus aquaticus, UniProt P19821 1-832)
T4 construct: N-terminal PfuRFCL PIP box, 35-residue Ser/Gly linker, Taq DNA polymerase; also called DNA polymerase variant Taq84
Protocol: as §1, §2

Taq85 (PIP-L47-Taq) = target: T5, Taq85 (PIP-L47-Taq) (Thermus aquaticus, UniProt P19821 1-832)
T5 construct: N-terminal PfuRFCL PIP box, 47-residue Ser/Gly linker, Taq DNA polymerase; also called DNA polymerase variant Taq85
Protocol: as §1, §2

Taq94 (Taq-L15-PIP) = target: T6, Taq94 (Taq-L15-PIP) (Thermus aquaticus, UniProt P19821 1-832)
T6 construct: Taq DNA polymerase, 15-residue Ser/Gly linker, PfuRFCL PIP box at the C-terminus; also called DNA polymerase variant Taq94
Protocol: as §1, §2

T4 sequence (P19821 other isoform, or with tags, fused parts or gaps): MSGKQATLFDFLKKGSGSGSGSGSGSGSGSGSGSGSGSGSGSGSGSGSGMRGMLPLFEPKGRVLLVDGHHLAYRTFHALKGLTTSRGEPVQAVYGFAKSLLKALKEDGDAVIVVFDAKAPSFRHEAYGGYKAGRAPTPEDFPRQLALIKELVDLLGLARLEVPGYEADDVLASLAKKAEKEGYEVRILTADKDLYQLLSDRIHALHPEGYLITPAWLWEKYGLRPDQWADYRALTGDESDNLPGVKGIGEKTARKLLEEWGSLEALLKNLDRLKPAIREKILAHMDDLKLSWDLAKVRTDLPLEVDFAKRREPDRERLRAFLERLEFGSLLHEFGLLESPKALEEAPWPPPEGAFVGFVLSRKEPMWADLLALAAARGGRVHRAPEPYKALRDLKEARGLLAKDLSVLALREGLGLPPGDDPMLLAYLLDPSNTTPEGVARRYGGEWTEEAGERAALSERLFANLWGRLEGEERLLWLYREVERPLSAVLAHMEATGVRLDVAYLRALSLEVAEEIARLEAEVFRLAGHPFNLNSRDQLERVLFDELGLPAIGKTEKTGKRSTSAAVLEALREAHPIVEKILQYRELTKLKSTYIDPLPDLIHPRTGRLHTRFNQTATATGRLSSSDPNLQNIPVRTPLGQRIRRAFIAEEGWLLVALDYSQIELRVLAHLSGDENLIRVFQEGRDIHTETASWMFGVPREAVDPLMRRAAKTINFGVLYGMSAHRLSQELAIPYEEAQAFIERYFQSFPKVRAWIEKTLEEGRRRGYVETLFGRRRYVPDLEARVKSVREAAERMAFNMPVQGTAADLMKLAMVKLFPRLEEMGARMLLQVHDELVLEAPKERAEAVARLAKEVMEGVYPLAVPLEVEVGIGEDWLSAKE
T2 sequence (P19821 other isoform, or with tags, fused parts or gaps): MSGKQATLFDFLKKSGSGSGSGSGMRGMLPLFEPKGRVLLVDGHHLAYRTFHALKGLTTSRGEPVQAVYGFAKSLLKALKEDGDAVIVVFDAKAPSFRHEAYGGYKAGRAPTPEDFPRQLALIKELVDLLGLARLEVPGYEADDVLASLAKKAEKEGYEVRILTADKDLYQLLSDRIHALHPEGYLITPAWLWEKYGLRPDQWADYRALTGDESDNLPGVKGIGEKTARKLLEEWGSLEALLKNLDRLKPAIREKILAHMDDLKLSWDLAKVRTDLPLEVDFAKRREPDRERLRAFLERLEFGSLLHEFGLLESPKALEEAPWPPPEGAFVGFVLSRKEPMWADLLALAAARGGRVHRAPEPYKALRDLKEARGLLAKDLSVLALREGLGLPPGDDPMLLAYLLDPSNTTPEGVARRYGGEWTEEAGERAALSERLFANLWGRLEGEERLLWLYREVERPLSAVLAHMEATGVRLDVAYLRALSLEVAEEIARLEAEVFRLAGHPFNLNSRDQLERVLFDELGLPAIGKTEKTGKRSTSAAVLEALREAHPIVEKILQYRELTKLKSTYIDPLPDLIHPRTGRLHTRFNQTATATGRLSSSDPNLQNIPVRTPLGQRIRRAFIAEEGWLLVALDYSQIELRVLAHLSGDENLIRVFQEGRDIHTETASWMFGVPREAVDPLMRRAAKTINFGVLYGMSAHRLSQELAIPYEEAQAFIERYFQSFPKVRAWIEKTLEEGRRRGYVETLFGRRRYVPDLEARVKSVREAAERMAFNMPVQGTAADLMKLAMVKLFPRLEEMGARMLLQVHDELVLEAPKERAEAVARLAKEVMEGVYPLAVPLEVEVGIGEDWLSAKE
T1 sequence (P19821 other isoform, or with tags, fused parts or gaps): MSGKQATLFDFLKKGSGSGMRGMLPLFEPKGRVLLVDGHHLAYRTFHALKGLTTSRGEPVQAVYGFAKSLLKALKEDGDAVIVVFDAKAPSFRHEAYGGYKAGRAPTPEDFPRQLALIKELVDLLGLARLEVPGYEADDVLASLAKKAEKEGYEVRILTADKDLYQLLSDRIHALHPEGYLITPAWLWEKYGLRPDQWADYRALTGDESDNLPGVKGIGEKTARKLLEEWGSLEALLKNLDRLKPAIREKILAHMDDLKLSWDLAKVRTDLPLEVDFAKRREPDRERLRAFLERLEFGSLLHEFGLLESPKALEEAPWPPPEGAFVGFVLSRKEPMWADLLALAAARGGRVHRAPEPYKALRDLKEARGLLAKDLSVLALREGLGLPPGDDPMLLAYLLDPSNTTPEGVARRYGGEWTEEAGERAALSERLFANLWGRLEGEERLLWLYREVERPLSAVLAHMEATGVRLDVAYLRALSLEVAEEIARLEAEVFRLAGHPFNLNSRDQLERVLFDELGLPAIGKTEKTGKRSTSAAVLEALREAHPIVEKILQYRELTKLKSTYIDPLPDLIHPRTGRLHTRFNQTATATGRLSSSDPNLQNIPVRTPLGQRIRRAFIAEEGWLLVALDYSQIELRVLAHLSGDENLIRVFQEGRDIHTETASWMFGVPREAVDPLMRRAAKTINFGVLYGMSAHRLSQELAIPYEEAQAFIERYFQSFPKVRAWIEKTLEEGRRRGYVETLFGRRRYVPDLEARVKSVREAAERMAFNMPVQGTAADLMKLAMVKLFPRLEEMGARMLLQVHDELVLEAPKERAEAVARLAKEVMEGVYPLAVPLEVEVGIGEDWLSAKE
T6 sequence (P19821 other isoform, or with tags, fused parts or gaps): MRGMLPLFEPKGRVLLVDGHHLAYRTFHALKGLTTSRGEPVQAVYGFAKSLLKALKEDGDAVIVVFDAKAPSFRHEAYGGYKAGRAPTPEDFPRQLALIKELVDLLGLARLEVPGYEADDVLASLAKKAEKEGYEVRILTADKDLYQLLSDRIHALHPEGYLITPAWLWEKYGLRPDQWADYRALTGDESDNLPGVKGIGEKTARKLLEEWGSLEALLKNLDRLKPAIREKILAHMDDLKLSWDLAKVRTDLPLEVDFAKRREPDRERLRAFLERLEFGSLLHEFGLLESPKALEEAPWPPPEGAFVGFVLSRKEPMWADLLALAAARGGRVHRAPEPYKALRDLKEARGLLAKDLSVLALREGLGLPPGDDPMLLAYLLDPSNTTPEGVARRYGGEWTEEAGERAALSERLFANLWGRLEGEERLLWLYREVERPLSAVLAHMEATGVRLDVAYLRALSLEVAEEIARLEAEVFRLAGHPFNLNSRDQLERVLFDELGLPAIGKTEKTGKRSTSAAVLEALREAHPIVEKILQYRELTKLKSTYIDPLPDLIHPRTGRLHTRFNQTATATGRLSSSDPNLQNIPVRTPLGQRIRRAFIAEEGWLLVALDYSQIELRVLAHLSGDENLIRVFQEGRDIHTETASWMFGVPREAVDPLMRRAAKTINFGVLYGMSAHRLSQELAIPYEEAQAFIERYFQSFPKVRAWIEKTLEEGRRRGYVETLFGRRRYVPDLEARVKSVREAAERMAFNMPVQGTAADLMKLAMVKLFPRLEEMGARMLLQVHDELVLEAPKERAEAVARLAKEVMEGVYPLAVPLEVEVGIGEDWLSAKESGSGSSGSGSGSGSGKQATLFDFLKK
T3 sequence (P19821 other isoform, or with tags, fused parts or gaps): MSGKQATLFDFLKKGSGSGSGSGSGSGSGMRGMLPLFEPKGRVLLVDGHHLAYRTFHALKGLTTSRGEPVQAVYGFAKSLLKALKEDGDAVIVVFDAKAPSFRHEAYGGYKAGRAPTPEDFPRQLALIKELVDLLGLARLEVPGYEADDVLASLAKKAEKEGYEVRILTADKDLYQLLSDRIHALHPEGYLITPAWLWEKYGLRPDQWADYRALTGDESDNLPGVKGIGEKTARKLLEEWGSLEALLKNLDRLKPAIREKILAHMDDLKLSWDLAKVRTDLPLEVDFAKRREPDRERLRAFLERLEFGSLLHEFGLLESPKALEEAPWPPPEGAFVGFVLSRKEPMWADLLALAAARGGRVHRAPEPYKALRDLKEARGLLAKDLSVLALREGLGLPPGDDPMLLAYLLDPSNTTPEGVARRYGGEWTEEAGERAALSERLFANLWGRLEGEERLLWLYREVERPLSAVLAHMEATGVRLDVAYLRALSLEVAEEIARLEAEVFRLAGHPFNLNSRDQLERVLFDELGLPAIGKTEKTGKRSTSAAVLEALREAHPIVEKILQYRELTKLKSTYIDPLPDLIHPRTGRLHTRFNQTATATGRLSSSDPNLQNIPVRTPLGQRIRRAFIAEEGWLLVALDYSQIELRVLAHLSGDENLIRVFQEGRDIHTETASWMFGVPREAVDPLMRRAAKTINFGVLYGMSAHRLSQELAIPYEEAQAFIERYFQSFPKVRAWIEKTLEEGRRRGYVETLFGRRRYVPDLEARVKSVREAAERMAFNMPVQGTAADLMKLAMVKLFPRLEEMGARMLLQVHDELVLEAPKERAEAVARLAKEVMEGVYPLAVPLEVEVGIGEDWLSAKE

Kd (Taq81 (PIP-L5-Taq)): 710 nM
Kd (Taq82 (PIP-L10-Taq)): 440 nM
Kd (Taq83 (PIP-L15-Taq)): 240 nM
Kd (Taq84 (PIP-L35-Taq)): 250 nM
Kd (Taq85 (PIP-L47-Taq)): 200 nM
Kd (Taq94 (Taq-L15-PIP)): 2500 nM
B1: PCNA from Pyrococcus furiosus (other, UniProt O73947 1-249, looked up)
chain: MPFEIVFEGAKEFAQLIDTASKLIDEAAFKVTEDGISMRAMDPSRVVLIDLNLPSSIFSKYEVVEPETIGVNMDHLKKILKRGKAKDTLILKKGEENFLEITIQGTATRTFRVPLIDVEEMEVDLPELPFTAKVVVLGEVLKDAVKDASLVSDSIKFIARENEFIMKAEGETQEVEIKLTLEDEGLLDIEVQEETKSAYGVSYLSDMVKGLGKADEVTIKFGNEMPMQMEYYIRDEGRLTFLLAPRVEE
notes: Wild-type PfuPCNA immobilised on a CM5 chip by amine coupling; also called PfuPCNA
